The labels stand for the following.
B1: LINE1-full (parent)
chain: UACGUAGGUGGUUUUCCCCUGAUAGUGCUAAGGGGGCCUGGAAGUUUGGACUGGGCAGAGCUCAACACAGCGUGGCAAAGUGGCUGUGGCUAGACUGCCUCUCUGGAUUCCUCGUCACUCAGCAGGGCAUCUCUGAGAGAAAUGCC

This passage reports self-cleavage results from the RNAGym collection of RNA variant scans (doi:10.7554/elife.90254).

Variants of B1 are the subject of this data set. As to the kind of experiment: self-cleavage, relative activity (ratio to wild type); higher = more cleavage; in vitro, sequencing; the parent is a self-cleaving ribozyme.
Turning to U26G U62A, the self-cleavage worked out at 0.03.
With U26G U62C the figure was 0.19; with C28G A77G, 0.89.
With C28G the figure was 0.98; with C28A, 1.07.
Turning to C28U, the self-cleavage came out at 1.08.
On to C28U A94G, for which the self-cleavage is 0.3.
U29A A50U: the self-cleavage is 0.89.
For U29A A50G, the self-cleavage turned out to be 0.51.
Then G27A A79G, with 1.07.
For the variant G27A A79U, the self-cleavage is 1.36.
Then C28A U108C, with 1.82; and U26A U119C, with 0.97.
Then C28U A142G, with 0.79; and U26A G70A, with 0.11; and U26A A50G, with 0.92.
Then U26A A65G, with 0.16; and U26A A65U, with 0.14; and G27A G36C, with 1.24.
For the variant U26A G32A, the self-cleavage came to 0.44.
Then U26C U45C, with 1.07; and U26C U45A, with 0.99; and G27C G54U, with 0.17.
Take U26C U47C: the self-cleavage amounted to 1.88.
Regarding C28G C128U, the self-cleavage was 1.8.
U26G A59G: the self-cleavage amounted to 0.41.
Then C28U C63A, with 0.02; and U26C U46A, with 0; and C28A U85C, with 0.17.
Then U26G U130C, with 0.86.
With U26C U112A the figure was 1.63; with U26A G55A, 0.25.
U26C U62C: the self-cleavage was found to be 0.1.
With G25A U46A the figure was 1.42.
With U26A U46C the figure was 1.45; with U26C C116U, 1.48; with U26C A31U, 1.05.
Take G25A U39A: the self-cleavage is 1.15.
As to C28U U47G, the self-cleavage was 0.7.
With U26C U108A the figure was 1.5; with U26C U108G, 2.12.
With U26C U108C the figure was 1.76; with C28A A77U, 1.42; with G25A A124G, 0.63.
With U26G U73A the figure was 1.61.
Consider U26G U73C, for which the self-cleavage was 0.96.
Then U26A G35U, with 1.14; and U26A G35A, with 0.67; and U26A A31U, with 1.43.
With U26C U102C the figure was 1.22; with U26C U102A, 1.31.
With C28A A67G the figure was 0.55.
With U26C G33U, the self-cleavage came out at 1.01.
With U26C G33A the figure was 0.7; with U29A A107G, 1.56; with C28U G54A, 0.65.
With G25A A67G the figure was 0.5; with G27A U29C, 0.79; with U26A G93A, 0.
Regarding U26G A141G, the self-cleavage came to 0.97.
Then U26C G122U, with 1.05.
For the variant C28U A141G, the self-cleavage amounted to 1.53.
Then U29A A30G, with 0.86.
On to U26A U134A, for which the self-cleavage worked out at 1.23.
Then U26C A50G, with 1.14; and U26A G36C, with 0.41.
With C28G U39C the figure was 0.82; with U26C A69G, 0.46.
With U26C A69U, the self-cleavage stood at 0.11.
Regarding U26A A57C, the self-cleavage was 0.02.
With U26C G32C the figure was 0.94.
With U26C G32A the figure was 1.03; with U26G U39A, 1.12.
Then U26G U39C, with 1; and G25A U108C, with 1.24; and C28A A42G, with 0.82.
Consider U26C A129U, for which the self-cleavage stood at 1.24.
Regarding U26A U62A, the self-cleavage is 0.05.
As for U26A U62C, the self-cleavage stood at 0.04.
U26C C111A: the self-cleavage was 1.04.
Then G25A A117U, with 1.25.
Then U26C A121U, with 1.43.
As to U26C A121G, the self-cleavage worked out at 1.64.
Take C28A U81C: the self-cleavage was 0.89.
With U26C G60A the figure was 0.12; with U26A A92G, 0.05.
On to U26C U39G, for which the self-cleavage stood at 0.65.
In the case of U26C U39A, the self-cleavage was 1.9.
With U26G A121C the figure was 1.31.
With G25C U119C the figure was 1.58; with U26G A50G, 0.56; with U26C U81A, 1.68.
Then U26C U81C, with 1.93; and G25A U91C, with 0; and U26G U108C, with 1.41.
In the case of U26G U108A, the self-cleavage amounted to 1.03.
With U26A C113U the figure was 0.86; with U26C C28U, 1.15; with U26C A59G, 0.08.
Then U26C A59C, with 1.37; and G27C U52A, with 0.91; and G27A U102A, with 1.12.
Then U26A U130C, with 1.24; and G27U U132A, with 1.23; and G27C U100C, with 1.13.
On to U26A U52C, for which the self-cleavage was 0.8.
For U26A A136G, the self-cleavage was 1.57.
U29A G35U: the self-cleavage came to 1.16.
With G25A A94G the figure was 0.21.
With U26A U81A, the self-cleavage amounted to 1.29.
Then U26A U81C, with 0.74; and U26A U96A, with 0.09; and U26A U96C, with 0.16.
Then U29A A78U, with 1.48; and C28U A78G, with 1; and G27A U81C, with 0.8.
With G25A A42G the figure was 1.38; with U26A U112C, 1.18; with U26A U112A, 0.9.
In the case of C28A A129G, the self-cleavage stood at 1.5.
With U29A A136U the figure was 1.38; with U29A A136G, 1.38; with G25C U102C, 1.31.
Consider U26G G105A, for which the self-cleavage came to 1.06.
Then U29A A65U, with 0.23.
Regarding U26C A141G, the self-cleavage was found to be 1.27.
With C28A A57G the figure was 1.53.
Then G25A U104A, with 1.03.
Then G27A A121G, with 1.46; and G27A A78G, with 0.74.
In the case of C28U C38U, the self-cleavage worked out at 1.06.
Then G27U G82A, with 1.51.
With U26C A107G the figure was 1.33; with U26C G88A, 0.05; with G25C U91C, 0.97.
For the variant U29A A129G, the self-cleavage is 1.11.
With G27A A30U the figure was 1.58; with C28A A64G, 0.28.
Regarding U26G A57G, the self-cleavage was determined as 0.82.
Then U26C U130C, with 1.7.
Take U26C U130A: the self-cleavage was found to be 1.35.
Then U26C G35U, with 1.56; and U26C G35C, with 2.65.
With U26C A138C the figure was 1.28.
With U26C A138G the figure was 1.78; with U26C A138U, 1.57.
In the case of C28U A107G, the self-cleavage stood at 0.88.
Then U26A U104C, with 1.28.
Then U29A A42G, with 1.65; and U26A A117U, with 0.98; and G27A U91C, with 0.35.
Then C28A U96C, with 0.17; and U26C U52A, with 1.53; and U26C A140G, with 1.19.
With U26C A140C, the self-cleavage worked out at 1.19.
With U26C G114A the figure was 1.22.
Then C28A A141G, with 0.61; and C28U U115G, with 1.3.
With C28U A50G the figure was 1.09; with C28A A92G, 0.12; with U29A C133U, 0.85.
Regarding G27A A57U, the self-cleavage was determined as 0.04.
Turning to G27A G34A, the self-cleavage worked out at 0.64.
With C28U A92U the figure was 0.43.
For U29A A64U, the self-cleavage was determined as 0.25.
With C28A U39A the figure was 1.54; with G27A A94U, 0.18.
